{"source": "patent US20150056199A1", "about": "(ACCELERON PHARMA, published 2015)", "binders": {"B1": {"name": "hTβRII-hG1Fc fusion protein (R&D Systems) incorporating the wild-type TβRIIshort isoform (Fc fusion)", "chain": "IPPHVQKSVNNDMIVTDNNGAVKFPQLCKFCDVRFSTCDNQKSCMSNCSITSICEKPQEVCVAVWRKNDENITLETVCHDPKLPYHDFILEDAASPKCIMKEKKKPGETFFMCSCSSDECNDNIIFSEEYNTSNPD", "notes": "Bought from R&D Systems; also called hTβRII-Fc; TGFβ receptor type II (TβRII)-Fc; not shown: human IgG1 Fc domain"}, "B2": {"name": "murine GDF15 (mGDF15), mature, generated in-house in CHO cells (ligand)", "chain": "AHPRDSCPLGPGRCCHLETVQATLEDLGWSDWVLSPRQLQLSMCVGECPHLYRSANTHAQIKARLHGLQPDKVPAPCCVPSSYTPVVLMHRTDSGVSLQTYDDLVARGCHCA"}}, "key": {"[1]": {"target": "T1, GDF15 (human or murine, not specified where printed)", "T1 construct": "Used here only where the species cannot be told", "test": "surface plasmon resonance, receptor-Fc captured, GDF15 as analyte", "source_text": "(§1) These fusion proteins incorporated an IgG1 Fc domain and were either purchased from R&D Systems or generated in-house."}, "[2]": {"target": "B1", "test": "surface plasmon resonance at 37° C., hTβRII-Fc captured, hGDF15 as analyte; 37° C.; hTβRII-Fc captured, hGDF15 as analyte", "source_text": "as §1"}, "[3]": {"target": "B2", "test": "surface plasmon resonance at 37° C., mGDF15"}, "[4]": {"target": "T2, ALK6 receptor-Fc fusion protein (human, UniProt O00238 14-126)", "T2 construct": "Bought from R&D Systems or made in-house; not shown: IgG1 Fc domain", "T2 sequence (looked up)": "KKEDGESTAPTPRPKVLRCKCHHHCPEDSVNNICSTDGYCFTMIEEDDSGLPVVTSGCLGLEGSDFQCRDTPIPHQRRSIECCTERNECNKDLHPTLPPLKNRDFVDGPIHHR", "test": "surface plasmon resonance with captured receptor-Fc fusion proteins", "source_text": "as §1"}, "[5]": {"target": "T3, ALK3 receptor-Fc fusion protein (human, UniProt P36894 24-152)", "T3 construct": "Bought from R&D Systems or made in-house; not shown: IgG1 Fc domain", "T3 sequence (P36894 24-152 limits assumed)": "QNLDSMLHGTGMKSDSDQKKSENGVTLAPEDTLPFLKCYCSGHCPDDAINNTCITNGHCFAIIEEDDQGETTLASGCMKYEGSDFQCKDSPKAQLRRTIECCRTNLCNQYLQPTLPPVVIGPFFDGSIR", "test": "surface plasmon resonance with captured receptor-Fc fusion proteins", "source_text": "as §1"}, "[6]": {"target": "B1", "test": "surface plasmon resonance at 37° C., mGDF15"}, "[7]": {"target": "B2", "test": "surface plasmon resonance with captured receptor-Fc fusion proteins", "source_text": "as §1"}}}
{"binder": "B1", "values": [{"measurement": "koff", "setting": "[1]", "value": 0.001, "unit": "s⁻¹"}, {"measurement": "kon", "setting": "[1]", "value": 292000, "unit": "M⁻¹ s⁻¹"}]}
{"binder": "human GDF15 (hGDF15), mature, generated in-house in CHO cells (ligand, also called MIC-1) ARNGDHCPLGPGRCCRLHTVRASLEDLGWADWVLSPREVQVTMCIGACPSQFRAANMHAQIKTSLHRLKPDTVPAPCCVPASYNPMVLIQKTDTGVSLQTYDDLLAKDCHCI", "values": [{"measurement": "Kd", "setting": "[2]", "value": 9.56, "unit": "nM"}]}
{"binder": "fusion protein incorporating the wild-type TβRIIlong isoform (R&D Systems) (Fc fusion, Bought from R&D Systems; also called TβRIIlong-Fc; not shown: Fc fusion partner of the purchased construct is not described for this follow-up analysis) TIPPHVQKSDVEMEAQKDEIICPSCNRTAHPLRHINNDMIVTDNNGAVKFPQLCKFCDVRFSTCDNQKSCMSNCSITSICEKPQEVCVAVWRKNDENITLETVCHDPKLPYHDFILEDAASPKCIMKEKKKPGETFFMCSCSSDECNDNIIFSEEYNTSNPD", "values": [{"measurement": "Kd", "setting": "[3]", "value": 2.7, "unit": "nM"}]}
{"binder": "B2", "values": [{"measurement": "binding result", "setting": "[4]", "value": "no binding (tested: 20 nM or 200 nM)"}, {"measurement": "binding result", "setting": "[5]", "value": "no binding (tested: 20 nM or 200 nM)"}, {"measurement": "Kd", "setting": "[6]", "value": 4.8, "unit": "nM"}]}
{"binder": "ALK7 receptor-Fc fusion protein (Fc fusion, human, UniProt Q8NER5 21-113, looked up, Bought from R&D Systems or made in-house; not shown: IgG1 Fc domain) ELSPGLKCVCLLCDSSNFTCQTEGACWASVMLTNGKEQVIKSCVSLPELNAQVFCHSSNNVTKTECCFTDFCNNITLHLPTASPNAPKLGPME", "values": [{"measurement": "binding result", "setting": "[7]", "value": "no binding (tested: 20 nM or 200 nM)"}]}
{"binder": "ALK2 receptor-Fc fusion protein (Fc fusion, human, UniProt Q04771 21-123, looked up, Bought from R&D Systems or made in-house; not shown: IgG1 Fc domain) MEDEKPKVNPKLYMCVCEGLSCGNEDHCEGQQCFSSLSINDGFHVYQKGCFQVYEQGKMTCKTPPSPGQAVECCQGDWCNRNITAQLPTKGKSFPGTQNFHLE", "values": [{"measurement": "binding result", "setting": "[7]", "value": "no binding (tested: 20 nM or 200 nM)"}]}
{"binder": "ALK4 receptor-Fc fusion protein (Fc fusion, human, UniProt P36896 24-126, looked up, Bought from R&D Systems or made in-house; not shown: IgG1 Fc domain) SGPRGVQALLCACTSCLQANYTCETDGACMVSIFNLDGMEHHVRTCIPKVELVPAGKPFYCLSSEDLRNTHCCYTDYCNRIDLRVPSGHLKEPEHPSMWGPVE", "values": [{"measurement": "binding result", "setting": "[7]", "value": "no binding (tested: 20 nM or 200 nM)"}]}
{"binder": "ALK5 receptor-Fc fusion protein (Fc fusion, human, UniProt P36897 34-126, looked up, Bought from R&D Systems or made in-house; also called TGFβ receptor type I; not shown: IgG1 Fc domain) LQCFCHLCTKDNFTCVTDGLCFVSVTETTDKVIHNSMCIAEIDLIPRDRPFVCAPSSKTGSVTTTYCCNQDHCNKIELPTTVKSSPGLGPVEL", "values": [{"measurement": "binding result", "setting": "[7]", "value": "no binding (tested: 20 nM or 200 nM)"}]}
